Laboratory results: IntAct's records for PubMed 31515488

B1: Endophilin-B2 (Homo sapiens), Q9NR46 (parent)
chain: MDFNMKKLASDAGIFFTRAVQFTEEKFGQAEKTELDAHFENLLARADSTKNWTEKILRQTEVLLQPNPSARVEEFLYEKLDRKVPSRVTNGELLAQYMADAASELGPTTPYGKTLIKVAEAEKQLGAAERDFIHTASISFLTPLRNFLEGDWKTISKERRLLQNRRLDLDACKARLKKAKAAEAKATTVPDFQETRPRNYILSASASALWNDEVDKAEQELRVAQTEFDRQAEVTRLLLEGISSTHVNHLRCLHEFVKSQTTYYAQCYRHMLDLQKQLGRFPGTFVGTTEPASPPLSSTSPTTAAATMPVVPSVASLAPPGEASLCLEEVAPPASGTRKARVLYDYEAADSSELALLADELITVYSLPGMDPDWLIGERGNKKGKVPVTYLELLS
partner: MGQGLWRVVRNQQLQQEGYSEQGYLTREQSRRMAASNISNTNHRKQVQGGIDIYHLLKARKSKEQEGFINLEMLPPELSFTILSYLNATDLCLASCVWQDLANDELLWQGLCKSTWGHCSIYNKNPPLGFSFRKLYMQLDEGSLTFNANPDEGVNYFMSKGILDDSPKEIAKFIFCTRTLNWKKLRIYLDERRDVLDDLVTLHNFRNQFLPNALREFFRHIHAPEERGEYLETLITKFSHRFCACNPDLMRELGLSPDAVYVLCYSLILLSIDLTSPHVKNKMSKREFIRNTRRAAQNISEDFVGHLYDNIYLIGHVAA
B2: Rieske domain-containing protein (Homo sapiens), Q8TAC1 (parent)
chain: MNLDGSAQDPEKREYSSVCVGREDDIKKSERMTAVVHDREVVIFYHKGEYHAMDIRCYHSGGPLHLGDIEDFDGRPCIVCPWHKYKITLATGEGLYQSINPKDPSAKPKWCSKGIKQRIHTVTVDNGNIYVTLSNEPFKCDSDFYATGDFKVIKSSS
partner: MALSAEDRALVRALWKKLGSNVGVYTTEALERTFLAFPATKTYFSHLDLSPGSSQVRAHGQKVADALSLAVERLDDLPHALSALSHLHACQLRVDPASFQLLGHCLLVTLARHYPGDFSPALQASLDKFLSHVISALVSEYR
B3: Ribosome-recycling factor, mitochondrial (Homo sapiens), Q96E11 (parent)
chain: MALGLKCFRMVHPTFRNYLAASIRPVSEVTLKTVHERQHGHRQYMAYSAVPVRHFATKKAKAKGKGQSQTRVNINAALVEDIINLEEVNEEMKSVIEALKDNFNKTLNIRTSPGSLDKIAVVTADGKLALNQISQISMKSPQLILVNMASFPECTAAAIKAIRESGMNLNPEVEGTLIRVPIPQVTREHREMLVKLAKQNTNKAKDSLRKVRTNSMNKLKKSKDTVSEDTIRLIEKQISQMADDTVAELDRHLAVKTKELLG
partner: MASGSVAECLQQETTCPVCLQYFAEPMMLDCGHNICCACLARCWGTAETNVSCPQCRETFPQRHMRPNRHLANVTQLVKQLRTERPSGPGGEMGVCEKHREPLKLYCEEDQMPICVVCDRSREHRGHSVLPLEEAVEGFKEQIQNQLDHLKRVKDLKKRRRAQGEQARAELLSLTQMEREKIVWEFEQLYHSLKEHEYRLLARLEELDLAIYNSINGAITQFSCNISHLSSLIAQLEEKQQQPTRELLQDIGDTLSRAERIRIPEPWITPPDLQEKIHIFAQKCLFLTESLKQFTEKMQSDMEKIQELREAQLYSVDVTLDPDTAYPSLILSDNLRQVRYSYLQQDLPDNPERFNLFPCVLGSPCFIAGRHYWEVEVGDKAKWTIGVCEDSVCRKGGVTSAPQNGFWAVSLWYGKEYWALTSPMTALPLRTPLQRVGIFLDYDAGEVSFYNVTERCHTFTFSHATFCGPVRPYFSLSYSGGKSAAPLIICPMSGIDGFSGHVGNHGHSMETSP

Variants of: B1
Conditions: with fbx8_human FBXO8, Q9NRD0

| Variant | effect of a mutation on the interaction |
| --- | --- |
| MDFNMKKLASDAGIFFTRAVQFTEEKFGQAEKTELDAHFENLLARADSTKNWTEKILRQTEVLLQPNPSARVEEFLYEKLDRKVPSRVTNGELLAQYMADAASELGPTTPYGKTLIKVAEAEKQLGAAERDFIHTASISFLTPLRNFLEGDWKTISKERRLLQNRRLDLDACKARLKKAKAAEAKATTVPDFQETRPRNYILSASASALWNDEVDKAEQELRMAQTEFDRQAEVTRLLLEGISSTHVNHLRCLHEFVKSQTTYYAQCYRHMLDLQKQLGRFPGTFVGTTEPASPPLSSTSPTTAAATMPVVPSVASLAPPGEASLCLEEVAPPASGTRKARVLYDYEAADSSELALLADELITVYSLPGMDPDWLIGERGNKKGKVPVTYLELLS [V223M] | with no effect |

Variants of: B2
Conditions: with hbat_human HBQ1, P09105

| Variant | effect of a mutation on the interaction |
| --- | --- |
| D38A | disrupting interaction strength |

Variants of: B3
Conditions: with tri27_human TRIM27, P14373

| Variant | effect of a mutation on the interaction |
| --- | --- |
| MALGLKCFRMVHPTFRNYLAASIRPVSEVTLKTVHERQHGHRQYMAYSAVPVRHFATKKAKAKGKGQSQTRVNINAALVEDIINLEEVNEEMKSVIEALKDNFNKTLNIRTSPGSLDKIAVVTADGKLALNQISQISMKSPQLILVNMASFPECTAAAIKAIRESGMNLNPEVEGTLIRVPIPQVTREHREMLVKLAKQNTNKAKDSLRKVRTNSVNKLKKSKDTVSEDTIRLIEKQISQMADDTVAELDRHLAVKTKELLG [M216V] | with no effect |
